Data taken from article doi:10.1101/2023.06.15.545135, “Structure of mechanically activated ion channel OSCA2.3 reveals mobile elements in the transmembrane domain” (bioRxiv, 2023).
Each block holds one molecule with its values, some of them ahead of it.

Legend:
[1] = target: Arabidopsis thaliana OSCA1.2 (Arabidopsis thaliana) (UniProt Q5XEZ5); experiment: cryo-EM structure; OSCA1.2 reconstituted in peptidiscs, ~8 mg/mL; 2.8 Å map, C2 symmetry imposed
[2] = target: the molecule itself; experiment: cryo-EM structure; OSCA2.3 reconstituted in peptidiscs, ~3.6 mg/mL, TBS with 2 mM DTT; 2.7 Å map, C2 symmetry imposed
[3] = target: the molecule itself; experiment: cryo-EM structure; OSCA1.2 reconstituted in peptidiscs, ~8 mg/mL; 2.8 Å map, C2 symmetry imposed

stoichiometry N [1]: 4 per protomer
Molecule: NSPr peptide (peptidisc peptide)

B1: Arabidopsis thaliana OSCA2.3 (natural protein, UniProt Q8GUH7 1-703, looked up)
chain: MLLSALLTSVGINLGLCFLFFTLYSILRKQPSNVTVYGPRLVKKDGKSQQSNEFNLERLLPTAGWVKRALEPTNDEILSNLGLDALVFIRVFVFSIRVFSFASVVGIFILLPVNYMGTEFEEFFDLPKKSMDNFSISNVNDGSNKLWIHFCAIYIFTAVVCSLLYYEHKYILTKRIAHLYSSKPQPQEFTVLVSGVPLVSGNSISETVENFFREYHSSSYLSHIVVHRTDKLKVLMNDAEKLYKKLTRVKSGSISRQKSRWGGFLGMFGNNVDVVDHYQKKLDKLEDDMRLKQSLLAGEEVPAAFVSFRTRHGAAIATNIQQGIDPTQWLTEAAPEPEDVHWPFFTASFVRRWISNVVVLVAFVALLILYIVPVVLVQGLANLHQLETWFPFLKGILNMKIVSQVITGYLPSLIFQLFLLIVPPIMLLLSSMQGFISHSQIEKSACIKLLIFTVWNSFFANVLSGSALYRVNVFLEPKTIPRVLAAAVPAQASFFVSYVVTSGWTGLSSEILRLVPLLWSFITKLFGKEDDKEFEVPSTPFCQEIPRILFFGLLGITYFFLSPLILPFLLVYYCLGYIIYRNQLLNVYAAKYETGGKFWPIVHSYTIFSLVLMHIIAVGLFGLKELPVASSLTIPLPVLTVLFSIYCQRRFLPNFKSYPTQCLVNKDKADEREQNMSEFYSELVVAYRDPALSASQDSRDISP
notes: OSCA2.3 of Arabidopsis thaliana, UniProt Q8GUH7, full-length, human codon optimized cDNA; 703 residues as printed; C-terminal PreScission Protease site with 4-5 residue linkers before the tags; After PreScission cleavage, remnants of the linker and of the cleavage site stay at the C-terminus; Final model holds residues 3-26, 65-115, 129-225, 302-368, 410-517 and 536-691; also called AtOSCA2.3; …
stoichiometry N [2]: 2

B2: Arabidopsis thaliana OSCA1.2 (natural protein)
chain: MATLQDIGVSAGINILSAFVFFIIFAVLRLQPFNDRVYFSKWYLKGLRSSPARGGAFAQRFVNLDFRSYMKFLNWMPEALKMPEPELIDHAGLDSVVYLRIYWLGLKIFTPIAVLAWAVLVPVNWTNNTLEMAKQLRNVTSSDIDKLSVSNIPEYSMRFWTHIVMAYAFTIWTCYVLMKEYETIANMRLQFVASEARRPDQFTVLVRNVPPDADESVSELVEHFFLVNHPDHYLTHQVVCNANKLADLVKKKKKLQNWLDYYQLKYARNNSQRIMVKLGFLGLWGQKVDAIEHYIAEIDKISKEISKEREEVVNDPKAIMPAAFVSFKTRWAAAVCAQTQQTRNPTQWLTEWAPEPRDVFWSNLAIPYVSLTVRRLIMHVAFFFLTFFFIVPIAFVQSLATIEGIVKAAPFLKFIVDDKFMKSVIQGFLPGIALKLFLAFLPSILMIMSKFEGFTSISSLERRAAFRYYIFNLVNVFLASVIAGAAFEQLNSFLNQSANQIPKTIGVAIPMKATFFITYIMVDGWAGVAGEILMLKPLIMFHLKNAFLVKTDKDREEAMDPGSIGFNTGEPRIQLYFLLGLVYAPVTPMLLPFILVFFALAYIVYRHQIINVYNQEYESAAAFWPDVHGRVIAALVISQLLLMGLLGTKHAALAAPFLIALPVLTIGFHHFCKGRYEPAFIRYPLQEAMMKDTLETAREPNLNLKGYLQNAYVHPVFKGDEDDYDIDDKLGKFEDEAIIVPTKRQSRRNTPAPSIISGDDSPSLPFSGKLV
notes: OSCA1.2 of Arabidopsis thaliana, UniProt Q5XEZ5; Final model holds residues 2-50, 71-121, 157-266, 290-487, 505-648, 654-718; also called AtOSCA1.2
binding result [3]: binds
